Results on one substance are retold here after patent US20140255406A1.

The target in one assay is human TNFα (human) (UniProt P01375). Kind of assay: cell-based or functional assay.
For assay [1], the target named is human non-cleavable membrane bound TNFα on CHO cells (human) (UniProt P01375). Kind of assay: cell-based or functional assay.
Sequence of human non-cleavable membrane bound TNFα on CHO cells (human) (P01375 whole entry): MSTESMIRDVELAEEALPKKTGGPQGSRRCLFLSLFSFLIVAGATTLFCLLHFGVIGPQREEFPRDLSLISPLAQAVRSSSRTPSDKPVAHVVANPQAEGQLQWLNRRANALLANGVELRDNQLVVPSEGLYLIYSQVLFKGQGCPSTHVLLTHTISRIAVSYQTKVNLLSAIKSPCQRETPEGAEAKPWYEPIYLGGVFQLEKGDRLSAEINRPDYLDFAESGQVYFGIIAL

Sequence of human TNFα (human) (P01375 77-233 limits assumed): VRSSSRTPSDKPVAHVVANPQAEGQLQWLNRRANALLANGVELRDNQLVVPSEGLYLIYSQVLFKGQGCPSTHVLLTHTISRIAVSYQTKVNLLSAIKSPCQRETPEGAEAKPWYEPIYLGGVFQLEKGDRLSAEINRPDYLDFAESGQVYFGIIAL

With adalimumab with IgG4 isotype (antibody), in the assay with human TNFα (human), the Average % inhibition of human TNFα-induced CXCL1 production in vivo (mouse plasma) came to 89.4% and the IC50, inhibition of TNFα-induced killing of L929 cells (MTT) amounted to 0.243 nM. This substance also registered an IC50, inhibition of killing of L929 cells by human non-cleavable membrane bound TNFα CHO cells (MTT) in assay [1] of 0.669 nM.
